Assay results reported in patent US20200010554A1 (TUSK THERAPEUTICS, published 2020).

How the values were obtained:
[1] = target: recombinant mouse IL-2 (mouse) (UniProt P04351); test: cell-based or functional assay
recombinant mouse CD25 [2] = target: T1, recombinant mouse CD25 (mouse, UniProt P01590 22-236, biotinylated in FIG. 1A (site not stated)); test: BLI Octet RED384, IgG on AHQ sensors, 100 nM antigen, 1:1 model
T1 construct: also called biotinylated mouse CD25
T1 sequence (looked up): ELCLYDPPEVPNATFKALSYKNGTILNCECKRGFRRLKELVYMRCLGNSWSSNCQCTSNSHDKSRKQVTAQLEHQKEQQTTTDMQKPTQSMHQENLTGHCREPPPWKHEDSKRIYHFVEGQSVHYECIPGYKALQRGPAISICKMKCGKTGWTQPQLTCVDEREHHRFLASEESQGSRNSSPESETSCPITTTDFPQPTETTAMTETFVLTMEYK

[3] = target: T2, recombinant mouse CD25 his tagged (mouse, UniProt P01590 22-236, limits assumed); test: SPR Biacore 2000, antibody captured by anti-mouse antibody on CM-5 chip, recombinant mouse CD25 his tagged as analyte, bivalent analyte model
T2 construct: also called rmCD25 his tagged; mCD25; not shown: his tag
T2 sequence (looked up): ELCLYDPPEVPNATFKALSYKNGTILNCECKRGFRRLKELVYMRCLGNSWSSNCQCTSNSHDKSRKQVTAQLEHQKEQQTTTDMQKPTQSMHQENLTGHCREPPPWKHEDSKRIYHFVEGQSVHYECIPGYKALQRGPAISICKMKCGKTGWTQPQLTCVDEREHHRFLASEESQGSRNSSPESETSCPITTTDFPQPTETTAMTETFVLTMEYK

recombinant mouse CD25 [4] = target: T1, recombinant mouse CD25; test: BLI tandem cross-blocking: biotinylated mouse CD25 on SA sensor, 100 nM mouse IL-2, then antibody at 150 s
[5] = target: T3, human CD25 expressed on cells (Karpas 299, SU-DHL-1, SR-786, in vitro differentiated Treg cells, PBMC) (human, UniProt P01589 22-272); test: flow cytometry titration on Karpas 299 cells, AF647 secondary antibody [Figure 68 continued]
T3 construct: also called CD25 expressing cells
T3 sequence: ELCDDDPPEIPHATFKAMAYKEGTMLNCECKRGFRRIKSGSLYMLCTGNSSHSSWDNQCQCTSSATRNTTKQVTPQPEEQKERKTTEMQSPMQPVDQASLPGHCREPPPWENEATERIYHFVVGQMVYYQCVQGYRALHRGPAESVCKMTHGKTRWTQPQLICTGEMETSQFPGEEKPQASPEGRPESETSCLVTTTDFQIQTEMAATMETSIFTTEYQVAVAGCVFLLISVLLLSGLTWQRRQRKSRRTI

[6] = target: T3, human CD25 expressed on cells (Karpas …); test: as above; remark: listed apart in the source
[7] = target: T3, human CD25 expressed on cells (Karpas …); test: flow cytometry titration on Karpas 299 cells, AF647 secondary antibody
[8] = target: T3, human CD25 expressed on cells (Karpas …); test: flow cytometry titration on Karpas 299 cells, AF647 secondary antibody [Figure 68 continued]; remark: listed apart in the source
[9] = target: T3, human CD25 expressed on cells (Karpas …); test: as above; remark: listed apart in the source
[10] = target: T3, human CD25 expressed on cells (Karpas …); test: flow cytometry titration on Karpas 299 cells, AF647 secondary antibody; remark: listed apart in the source
[11] = target: T3, human CD25 expressed on cells (Karpas …); test: as above; remark: listed apart in the source
[12] = target: T3, human CD25 expressed on cells (Karpas …); test: as above; remark: listed apart in the source

Molecule: neutralizing anti-mouse IL-2 antibody, clone Jes6-1A12
- frequency of CD4 T cells both proliferating and producing Granzyme B after anti-CD3/anti-CD28 stimulation [1]: < 1%

B1: 7D4(mIgG2a), recombinant anti-mouse CD25 antibody with mouse IgG2a and kappa constant regions (antibody)
heavy: EVQLQQSGAALVKPGASVKMSCKASGYSFPDSWVTWVKQSHGKSLEWIGDIFPNSGATNFNEKFKGKATLTVDKSTSTAYMELSRLTSEDSAIYYCTRLDYGYWGQGVMVTVSSAKTTAPSVYPLAPVCGDTTGSSVTLGCLVKGYFPEPVTLTWNSGSLSSGVHTFPAVLQSDLYTLSSSVTVTSSTWPSQSITCNVAHPASSTKVDKKIEPRGPTIKPCPPCKCPAPNLLGGPSVFIFPPKIKDVLMISLSPIVTCVVVDVSEDDPDVQISWFVNNVEVHTAQTQTHREDYNSTLRVVSALPIQHQDWMSGKEFKCKVNNKDLPAPIERTISKPKGSVRAPQVYVLPPPEEEMTKKQVTLTCMVTDFMPEDIYVEWTNNGKTELNYKNTEPVLDSDGSYFMYSKLRVEKKNWVERNSYSCSVVHEGLHNHHTTKSFSRTPGK
light: DVVLTQTPPTLSATIGQSVSISCRSSQSLLHSNGNTYLNWLLQRPGQPPQLLIYLASRLESGVPNRFSGSGSGTDFTLKISGVEAEDLGVYYCVQSSHFPNTFGVGTKLEIKRADAAPTVSIFPPSSEQLTSGGASVVCFLNNFYPKDINVKWKIDGSERQNGVLNSWTDQDSKDSTYSMSSTLTLTKDEYERHNSYTCEATHKTSTSPIVKSFNRNEC
notes: also called 7D4m2a; a7D4 mIgG2a
- Kd (recombinant mouse CD25 [2]): ~1 nM
- Kd [3]: 2.6 nM

B2: 7D4(mIgG1), recombinant anti-mouse CD25 antibody with murine IgG1 and kappa constant regions (antibody)
heavy: EVQLQQSGAALVKPGASVKMSCKASGYSFPDSWVTWVKQSHGKSLEWIGDIFPNSGATNFNEKFKGKATLTVDKSTSTAYMELSRLTSEDSAIYYCTRLDYGYWGQGVMVTVSSAKTTPPSVYPLAPGSAAQTNSMVTLGCLVKGYFPEPVTVTWNSGSLSSGVHTFPAVLQSDLYTLSSSVTVPSSTWPSQTVTCNVAHPASSTKVDKKIVPRDCGCKPCICTVPEVSSVFIFPPKPKDVLMISLTPKVTCVVVDISKDDPEVQFSWFVDDVEVHTAQTKPREEQINSTERSVSELPILHQDWLNGKEFKCRVNSAAFPAPIEKTISKTKGRPKAPQVYTIPPPKEQMAKDKVSLTCMITNEFPEDITVEWQWNGQPAENYKNTQPIMDTDGSYFVYSKLNVQKSNWEAGNTFTCSVLHEGLHNHHTEKSLSHSPGK
light: DVVLTQTPPTLSATIGQSVSISCRSSQSLLHSNGNTYLNWLLQRPGQPPQLLIYLASRLESGVPNRFSGSGSGTDFTLKISGVEAEDLGVYYCVQSSHFPNTFGVGTKLEIKRADAAPTVSIFPPSSEQLTSGGASVVCFLNNFYPKDINVKWKIDGSERQNGVLNSWTDQDSKDSTYSMSSTLTLTKDEYERHNSYTCEATHKTSTSPIVKSFNRNEC
notes: also called a7D4(mIgG1); 7D4 (mlg1)
- Kd (recombinant mouse CD25 [2]): ~1 nM

B3: recombinant mouse IL-2 (ligand, UniProt P04351 21-169, looked up)
chain: APTSSSTSSSTAEAQQQQQQQQQQQQHLEQLLMDLQELLSRMENYRNLKLPRMLTFKFYLPKQATELKDLQCLEDELGPLRHVLDLTQSKSFQLEDAENFISNIRVTVVKLKGSDNTFECQFDDESATVVDFLRRWIAFCQSIISTSPQ
- binding result (recombinant mouse CD25 [4]): binds

B4: Antibody 18 (antibody, V domains shown)
VH: QVQLVESGGGVVQPGGSLRLSCAVSGFSLTSYGIQWVRQAPGKGLEWVSVIWAGGSTNYNSALMSRFTISKDNSKSTLYLQMNSLRAEDTAVYYCARAYGYDGSWLAYWGQGTLVTVSS
VL: EIVLTQSPATLSLSPGERATLSCRASSSVSYMHWYQQKPGQAPRPLIFATSNLASGIPARFSGSGSGTDFTLTISSLEPEDFAVYYCQQWSSNPPTFGGGTKLEIK
notes: also called Ab18
- EC50 (read off the curve) [5]: ~0.3 µg/mL

B5: Antibody 19 (antibody, V domains shown)
VH: QVQLVESGGGVVQPGGSLRLSCAVSGFSLTSYGIQWVRQAPGKGLEWVSVIWAGGSTNYNSALMSRFTISKDNSKSTLYLQMNSLRAEDTAVYYCARAYGYDGSWLAYWGQGTLVTVSS
VL: QIVLTQSPATLSLSPGERATLSCRASSSVSYMHWYQQKPGQAPRPLIFATSNLASGIPARFSGSGSGTDYTLTISSLEPEDFAVYYCQQWSSNPPTFGGGTKLEIK
notes: also called Ab19; Antibodyl9
- EC50 (read off the curve) [6]: ~0.3 µg/mL

B6: 2E4, anti-mouse CD25 antibody from the 2E4 hybridoma (antibody, V domains shown)
VH: EVQLVESGGGLVQPGRSLKLSCAASGFTFSDYGMAWVRQAPTKGLEWVASITNGGLNTYYRDSVKGRFTISRDNAKCTLYLQMDSLRSEDTATYYCATGGFSFWGQGTLVTVSS
VL: DIVMTQSPTSMSISVGDRVTMNCKASQNVDSNVDWYQQKTGQSPKLLIYKASNRYTGVPDRFTGSGSGTDFTFTIRNMQAEDLAVYYCMQSNSYPLTFGSGTKLEIK
notes: also called 2E4 (mlg1)
- Kd [3]: 114 nM

B7: Antibody 12 (antibody, V domains shown)
VH: QVQLQESGPGLVKPSETLSLTCTVSGFSLTSYGIQWIRQPPGKGLEWIGVIWAGGSTNYNSALMSRVTISKDNSKNQFSLKLSSVTAADTAVYYCARAYGYDGSWLAYWGQGTLVTVSS
VL: DIQMTQSPSSLSASVGDRVTITCRASSSVSYMHWYQQKPGKAPKPLIFATSNLASGVPSRFSGSGSGTDYTLTISSLQPEDFATYYCQQWSSNPPTFGGGTKLEIK
notes: also called Ab12
- EC50 (read off the curve) [7]: ~0.3 µg/mL

B8: Antibody 17 (antibody, V domains shown)
VH: QVQLQESGPGLVKPSETLSLTCTVSGFSLTSYGIQWVRQPPGKGLEWIGVIWAGGSTNYNSALMSRVTISKDNSKSQFSLKLSSVTAADTAVYYCARAYGYDGSWLAYWGQGTLVTVSS
VL: QIQLTQSPSSLSASVGDRVTITCRASSSVSYMHWYQQKPGKSPKPLIFATSNLASGVPSRFSGSGSGTDYTLTISSLQPEDFATYYCQQWSSNPPTFGGGTKLEIK
notes: also called Ab17
- EC50 (read off the curve) [8]: ~0.2 µg/mL

B9: Antibody 16 (antibody, V domains shown)
VH: QVQLQESGPGLVKPSETLSLTCTVSGFSLTSYGIQWVRQPPGKGLEWIGVIWAGGSTNYNSALMSRVTISKDNSKSQFSLKLSSVTAADTAVYYCARAYGYDGSWLAYWGQGTLVTVSS
VL: DIQMTQSPSSLSASVGDRVTITCRASSSVSYMHWYQQKPGKAPKPLIFATSNLASGVPSRFSGSGSGTDYTLTISSLQPEDFATYYCQQWSSNPPTFGGGTKLEIK
notes: also called Ab16
- EC50 (read off the curve) [9]: ~0.2 µg/mL

B10: Antibody 15 (antibody, V domains shown)
VH: QVQLQESGPGLVKPSETLSLTCTVSGFSLTSYGIQWVRQPPGKGLEWIGVIWAGGSTNYNSALMSRVTISKDNSKSQFSLKLSSVTAADTAVYYCARAYGYDGSWLAYWGQGTLVTVSS
VL: QIVLTQSPATLSLSPGERATLSCRASSSVSYMHWYQQKPGQAPRPLIFATSNLASGIPARFSGSGSGTDYTLTISSLEPEDFAVYYCQQWSSNPPTFGGGTKLEIK
notes: also called Ab15
- EC50 (read off the curve) [10]: ~0.3 µg/mL

B11: Antibody 13 (antibody, V domains shown)
VH: QVQLQESGPGLVKPSETLSLTCTVSGFSLTSYGIQWIRQPPGKGLEWIGVIWAGGSTNYNSALMSRVTISKDNSKNQFSLKLSSVTAADTAVYYCARAYGYDGSWLAYWGQGTLVTVSS
VL: QIQLTQSPSSLSASVGDRVTITCRASSSVSYMHWYQQKPGKSPKPLIFATSNLASGVPSRFSGSGSGTDYTLTISSLQPEDFATYYCQQWSSNPPTFGGGTKLEIK
notes: also called Ab13
- EC50 (read off the curve) [11]: ~0.2 µg/mL

B12: Antibody 14 (antibody, V domains shown)
VH: QVQLQESGPGLVKPSETLSLTCTVSGFSLTSYGIQWVRQPPGKGLEWIGVIWAGGSTNYNSALMSRVTISKDNSKSQFSLKLSSVTAADTAVYYCARAYGYDGSWLAYWGQGTLVTVSS
VL: EIVLTQSPATLSLSPGERATLSCRASSSVSYMHWYQQKPGQAPRPLIFATSNLASGIPARFSGSGSGTDFTLTISSLEPEDFAVYYCQQWSSNPPTFGGGTKLEIK
notes: also called AB14
- EC50 (read off the curve) [12]: ~0.3 µg/mL
